Substitutions are numbered along the chain they refer to. Names and notes keep the numbering of the source.
Tests used:
[1] = molecular target: T1, MFSD2a, endogenous on human cell lines (human (endogenous in HEK293T, Jurkat, HUVEC, U87-MG)) (UniProt Q8NA29)
T1 sequence: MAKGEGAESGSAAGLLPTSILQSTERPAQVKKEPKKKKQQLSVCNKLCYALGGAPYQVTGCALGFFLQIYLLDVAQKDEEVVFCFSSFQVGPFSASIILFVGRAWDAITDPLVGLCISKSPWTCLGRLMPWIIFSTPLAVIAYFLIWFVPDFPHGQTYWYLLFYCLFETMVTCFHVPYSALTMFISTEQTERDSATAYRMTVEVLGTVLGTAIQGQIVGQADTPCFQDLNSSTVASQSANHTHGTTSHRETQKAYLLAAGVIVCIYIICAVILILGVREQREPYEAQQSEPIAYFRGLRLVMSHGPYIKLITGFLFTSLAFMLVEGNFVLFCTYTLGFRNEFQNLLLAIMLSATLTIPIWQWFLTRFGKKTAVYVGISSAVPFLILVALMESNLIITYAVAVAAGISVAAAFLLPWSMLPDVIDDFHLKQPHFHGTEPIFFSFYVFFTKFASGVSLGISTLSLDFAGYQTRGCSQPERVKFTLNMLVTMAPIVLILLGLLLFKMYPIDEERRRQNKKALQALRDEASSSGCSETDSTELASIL

[2] = molecular target: T2, MFSD2a N227Q-V5, expressed in HeLa cells (UniProt Q8NA29)
T2 sequence: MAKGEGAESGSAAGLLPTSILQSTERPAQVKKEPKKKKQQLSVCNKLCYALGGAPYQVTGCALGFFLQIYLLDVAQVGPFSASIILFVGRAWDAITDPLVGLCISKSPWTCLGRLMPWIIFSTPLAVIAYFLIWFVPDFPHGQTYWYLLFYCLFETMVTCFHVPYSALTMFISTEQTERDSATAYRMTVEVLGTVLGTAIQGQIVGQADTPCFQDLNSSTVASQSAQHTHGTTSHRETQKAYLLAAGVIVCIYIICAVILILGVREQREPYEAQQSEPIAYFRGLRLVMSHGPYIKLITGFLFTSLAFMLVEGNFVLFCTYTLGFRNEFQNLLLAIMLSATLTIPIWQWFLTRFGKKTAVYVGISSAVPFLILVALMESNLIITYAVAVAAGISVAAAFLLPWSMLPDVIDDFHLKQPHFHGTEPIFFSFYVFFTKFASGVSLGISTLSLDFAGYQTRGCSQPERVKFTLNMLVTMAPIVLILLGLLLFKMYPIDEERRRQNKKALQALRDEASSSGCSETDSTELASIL

[3] = molecular target: T3, MFSD2a N217Q-V5, expressed in HeLa cells (UniProt Q8NA29)
T3 sequence: T2 sequence with N217Q, Q227N

[4] = molecular target: T1, MFSD2a, endogenous on human cell lines (human (endogenous in HEK293T, Jurkat, HUVEC, U87-MG)); remark: listed apart in the source
[5] = molecular target: simian MFSD2a, endogenous on Cos-7 cells (simian (endogenous in Cos-7))
[6] = molecular target: T1, MFSD2a, endogenous on human cell lines (human (endogenous in HEK293T, Jurkat, HUVEC, U87-MG)); remark: listed apart in the source
[7] = anti-V5 Western blot of transfected cells; details: glycan lost; control: wild-type MFSD2a
[8] = anti-V5 immunofluorescence, confocal, Cos-7 cells; details: glycan lost; control: wild-type MFSD2a
[9] = luciferase infection assay in transfected HeLa cells; details: glycan lost; control: wild-type MFSD2a

B1: Syncytin-2, expressed in HEK293T cells (cell fusion assay) (natural protein)
chain: AYRHPDFPLLEKAQQLLQSTGSPYSTNCWLCTSSSTETPGTAYPASPREWTSIEAELHISYRWDPNLKGLMRPANSLLSTVKQDFPDIRQKPPIFGPIFTNINLMGIAPICVMAKRKNGTNVGTLPSTVCNVTFTVDSNQQTYQTYTHNQFRHQPRFPKPPNITFPQGTLLDKSSRFCQGRPSSCSTRNFWFRPADYNQCLQISNLSSTAEWVLLDQTRNSLFWENKTKGANQSQTPCVQVLAGMTIATSYLGISAVSEFFGTSLTPLFHFHISTCLKTQGAFYICGQSIHQCLPSNWTGTCTIGYVTPDIFIAPGNLSLPIPIYGNSPLPRVRRAIHFIPLLAGLGILAGTGTGIAGITKASLTYSQLSKEIANNIDTMAKALTTMQEQIDSLAAVVLQNRRGLDMLTAAQGGICLALDEKCCFWVNQSGKVQDNIRQLLNQASSLRERATQGWLNWEGTWKWFSWVLPLTGPLVSLLLLLLFGPCLLNLITQFVSSRLQAIKLQTNLSAGRHPRNIQESPF
cellular fusion index of Syn-2-transfected HEK293T cells with 4 µM recombinant Gal-1 for 24 h (8.56% +/− 0.6 with PBS; 5.76% +/− 0.22 with Gal-1 and 50 mM lactose) [1]: 17.5%

B2: Syncytin-2 (Flag-tagged), on pseudotyped NL4.3 virions (natural protein)
chain: B1 chain
fold-change in infectivity (luciferase) of Syn-2-pseudotyped viruses on N227Q-MFSD2a-transfected HeLa cells with Gal-1 against control; counteracted by lactose [2]: 10.2 fold
fold-change in infectivity (luciferase) of Syn-2-pseudotyped viruses on N217Q-MFSD2a-transfected HeLa cells with Gal-1 against control; counteracted by lactose [3]: 10.8 fold
fold-change in infectivity (luciferase) of Syn-2-pseudotyped viruses on HUVEC cells with 4 µM Gal-1 against virus only; inhibited by 50 mM lactose [4]: 33.4 fold
fold-change in infectivity (luciferase) of Syn-2-pseudotyped viruses on Jurkat cells with 4 µM Gal-1 against virus only; inhibited by 50 mM lactose [4]: 14.1 fold
fold-change in infectivity (luciferase) of Syn-2-pseudotyped viruses on U87-MG cells with 4 µM Gal-1 against virus only; inhibited by 50 mM lactose [4]: 6.76 fold
fold-change in infectivity (luciferase) of Syn-2-pseudotyped viruses on Cos-7 cells with 4 µM Gal-1 against virus only; abolished by 50 mM lactose [5]: 6.93 fold
fold-change in infectivity (luciferase) of Syn-2-pseudotyped viruses on HEK293T cells with 4 µM Gal-1 against virus only; abolished by 50 mM lactose [6]: 5.51 fold

B3: MFSD2a: N217Q (protein)
parent chain: T2 sequence with Q227N
expression_or_secretion [7]: no change
localisation_or_trafficking [8]: no change
other: galectin-1 enhancement of Syn-2 pseudovirus infectivity, fold_change [9]: no change, 10.8-fold +/− 3.96 vs 9.3 +/− 1.52

B4: MFSD2a: N227Q (protein)
parent chain: T2 sequence with Q227N
expression_or_secretion [7]: no change
localisation_or_trafficking [8]: no change
other: galectin-1 enhancement of Syn-2 pseudovirus infectivity, fold_change [9]: no change, 10.2-fold +/− 4.75 vs 9.3 +/− 1.52

B5: MFSD2a: double mutant (protein)
parent chain: T2 sequence with Q227N
expression_or_secretion [7]: decreases

From publication PMC10747188
